Source: patent publication US20230279104A1 (KOREA RESEARCH INSTITUTE OF BIOSCIENCE AND BIOTECHNOLOGY, published 2023)

Biological target: T1, human transmembrane 4 L6 family member 5 (TM4SF5) on cells (human, UniProt O14894 1-197)
T1 construct: whole, on cells; also called endogenous TM4SF5; TM4SF5 protein
T1 sequence (looked up): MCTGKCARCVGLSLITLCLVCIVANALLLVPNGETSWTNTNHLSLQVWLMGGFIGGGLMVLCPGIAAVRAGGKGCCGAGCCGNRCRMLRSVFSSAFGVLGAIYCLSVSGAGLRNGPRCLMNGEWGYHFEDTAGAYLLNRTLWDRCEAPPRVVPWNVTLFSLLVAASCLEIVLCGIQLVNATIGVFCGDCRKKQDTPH
Assay: flow cytometry, internalization analysis on SNU449Tp cells
Description: Cells were transferred to ice-cold buffer to stop the occurrence of internalization and stained with FITC-conjugated anti-human IgG. PI⁻ cells were analyzed by flow cytometry.

B1: humanized monoclonal antibody Ab27-hz9 (scFv-hFc form) (antibody, V domains shown)
VH: QVQLVQSGAEVKKPGASVKVSCKASGYTFTDYEMHWVRQAPGQGLEWMGAIDPETGGTAYNQKFKGRVTMTADKSISTAYMELSRLRSDDTAVYYCARPYLGYWGQGTLVTVSS
VL: EIVLTQSPGTLSLSPGERATLSCRSSQSLVHSNGNTYLHWYQQKPGQAPRLLIYKVSNRFSGIPDRFSGSGSGTDFTLTISRLEPEDFAVYYCFQGSHIPLTFGQGTKVEIK
notes: VH and VK genes were synthesized in scFv format and inserted into the pDR-OriP-Fc1 vector, so the molecule tested is an scFv-human Fc fusion; Frameworks are IGHV1-2 and IGKV3-20 with murine residues kept at H71 and H73; also called humanized Ab27
Question: Does B1 bind?
Answer: Result: binds
